In patent US20060018919A1:
Ends that are not written are not given here.

Key:
[1] = target: target rabbit anti-LOS antibody; assay: peptide ELISA, peptide coupled to NucleoLink strip, target antibody 0.4 ug/well
[2] = target: target rabbit anti-LOS antibody; assay: capture ELISA, phage on coated antibody; OD over irrelevant rabbit antibody

Row | Binder | Binding reactivity (OD405) [1] | Fold rise of ELISA value [2]
1 | NMMNYIMDPRTHGGGS (also: coupled via C-terminal carboxyl to NucleoLink strips) [synthetic peptide 2 … with C-terminal GGGS spacer] | 2.52 OD405 | 
2 | NMMRFTELSTPSGGGS (also: coupled via C-terminal carboxyl to NucleoLink strips) [synthetic peptide 4 … with C-terminal GGGS spacer] | 0.99 OD405 | 
3 | NMMKYISPPIFLGGGS (also: coupled via C-terminal carboxyl to NucleoLink strips) [synthetic peptide 3 … with C-terminal GGGS spacer] | 1.11 OD405 | 
4 | NMMRFTSQPPNNGGGS (also: coupled via C-terminal carboxyl to NucleoLink strips) [synthetic peptide 1 … with C-terminal GGGS spacer] | 0.4 OD405 | 
5 | NMMRFTELSTPSGGGS (peptide, not shown: large carriers) [phage clone 2-15] |  | 1510 fold
6 | TLAHHKKPWILRGGGS (also: coupled via C-terminal carboxyl to NucleoLink strips) [synthetic peptide 5 … (control peptide from an unrelated clone) with C-terminal GGGS spacer] | 0.33 OD405 | 
